Data published in article PMC5827449, “Structural analysis of group II chitinase (ChtII) catalysis completes the puzzle of chitin hydrolysis in insects” (The Journal of Biological Chemistry, 2018).

Test system: T1, CC(=O)N[C@H]1[C@H](Oc2ccc3c(C)cc(=O)oc3c2)O[C@H](CO)[C@@H](O[C@@H]2O[C@H](CO)[C@@H](O)[C@H](O)[C@H]2NC(C)=O)[C@@H]1O
T1 construct: single GH18 catalytic domain C1 (core 1613-1855 and 1940-1988, insertion domain 1856-1939); His-tag purified from Pichia pastoris GS115
Test: fluorescence of released 4-methylumbelliferone
Assay type: biochemical, Ostrinia furnacalis
Conditions: pH 6.0, 20 mM sodium phosphate, 303 K, 20 min, 30.0 °C
Excerpt: fluorescence of released 4-methylumbelliferone on OfChtII-C1

Substance: OfChtII-C1 (Ostrinia furnacalis; A1877I/D1864N/D1876G/DEL1865-1874/G1863E/K1875R/N1878H)
- Km: 15.52 ± 0.98 µM
- kcat: 0.5498 ± 0.0108 s⁻¹
- kcat/Km: 35500 M⁻¹ s⁻¹
